Measurements from article PMC11041648.
Where two headings read alike, the source gives them in different places.

What was measured:
[1] = target: PGT145 IgG (human); experiment: BLI; Octet Red; PGT145 IgG (8 µg/mL) loaded on anti-human IgG Fc capture biosensors; twofold dilution series of SOSIP trimer as analyte; 3 min association, 3 min dissociation; PBS pH 7.4, 0.1% BSA, 0.005% Tween 20, 0.02% NaN3; 1:1 binding model; averages of at least two independent experiments
[2] = target: PGT145 IgG (human); experiment: as above; remark: listed apart in the source

Sequence of PGT145 IgG (human) (heavy, as listed by the source, chain 1 of 2): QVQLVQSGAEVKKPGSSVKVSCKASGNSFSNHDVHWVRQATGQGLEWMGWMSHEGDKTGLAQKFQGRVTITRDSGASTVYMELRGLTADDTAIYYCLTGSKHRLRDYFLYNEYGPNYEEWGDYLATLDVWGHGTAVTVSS
Sequence of PGT145 IgG (human) (light, as listed by the source, chain 2 of 2): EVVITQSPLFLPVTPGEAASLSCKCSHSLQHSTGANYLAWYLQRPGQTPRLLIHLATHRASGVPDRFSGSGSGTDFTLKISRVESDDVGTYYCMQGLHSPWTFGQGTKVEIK

| Substance | Kd [1] [nM] | koff [1] [s⁻¹] | kon [1] [M⁻¹ s⁻¹] | Kd [2] [nM] | koff [2] [s⁻¹] | kon [2] [M⁻¹ s⁻¹] |
| --- | --- | --- | --- | --- | --- | --- |
| BG505 SOSIP.664 Env trimer (complex) | 15.6 | 0.00185 | 129000 | 16 | 0.00177 | 120000 |
| CNE8 SOSIP.664 Env trimer (complex) |  |  |  | 50.8 | 0.00419 | 83400 |
| BJOX2000 SOSIP.664 Env trimer (complex) |  |  |  | 27.7 | 0.00152 | 66700 |
